Laboratory results as given in the NTF2 design screens of Basanta et al. (2020).

Assay: protease stability score; higher = more stable; yeast display proteolysis, trypsin and chymotrypsin;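 note: log10 excess protease needed over predicted unfolded state with 0 meaning unfolded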
With “DDELRHVAERFVQALDEGDPNELKEMADPNARMQVGDKYITGMETFVKHERKKMEKIRIEVVDFKANVNGDKVQVHFDVRFEVNGQPRRYSYVVIFQFRNGRISHVNVQVDPRQLKKNES” the protease stability score was 1.04.
“DDELVRSAEHLFKVWQDGNPDEAKRYMDPNAELKVGDKTVHGRDDANRWVEQLQRELRYHFTINNVERQGNTVVIKATATEHHNGKPKTYSVDIEIEAQNGKVKLVIIRING” showed a protease stability score of -0.09.
Work on “DDEMIRVYREMQKALQDNDPERAKELMDPNAKLRYGDKVFHGREEFAKDMERRHHESRVQIRHLKVEDQGEKAVARFNEVNNSNGRPNSKSVSVELEAHNGKLVHVRAQDTK” yielded a protease stability score of -0.172.
“DDEMKKVVSRFVEAEKQGNPEDLKRNADPNVKVQVGDKTVNGRDKWATDLHKRRRDIDVEREYKSVHLTGDHLTMDVEAVYNVNGTPHKMRVTLRVVAHNGKIKKMHVQLSEEELRRLDR” showed a protease stability score of 0.229.
Work on “DDENMSAFERWLHAVETGNPQKVKEQMDENAKLDVGEKDVTGMDEIRRQLEKEMKRMRVTIQRYDLQVHNGQVVVRQTVVNKNDGQPRRRTNVVHVDIRNGRIQRIIQRDDG” yielded a protease stability score of 0.42.
Work on “DDENNKILEEYLKAEQTNDPDRAVELMRDDVRMQVGDHRVHGREEVRKRIHQIKDTMRVQIDDLRVTVKGESVVANLDAQVRINGQPVRFRASVRADFHNGKIVHHRVHISEEQQERLKK” yielded a protease stability score of 0.272.
With “DDENQQHFAEKMATAVIKNDPDEIVRLADPNVQVQVGEKEVHGREEVHELMEELKDQADHVHLVSVHVSNGQVNIVVDVVVNGKRLRVTITVKFNNGKVRYIRVDPEFQRKMDK” the protease stability score was -0.095.
With “DDENRHMAEEMMQIFKHGDHDRHRQLIDPNVKVKIGDKEYHGMEKLVQRHKEEVDQIRFEVKTVSVHNQGDKLKVEWRYVADFNGRPHDVRDDYTIDVRNGKVRSIDYNVDPRELETLLR” the protease stability score was -0.128.
Work on “DDENRKRAEEWLQAVQEGNEHQVMELADPNVRFVIGDKTLHGREQLSEWVKRVHDQMRFSVEIKHVRVHGDKVLITVRHTANVNGKPFDDTLIIKVVINNGKFQRIELRVDPEKLKHLKT” yielded a protease stability score of 1.01.
With “DDENRRFAERLMKVWRTNNEEDARTLFDKDVRFEIGDKVLHGKEQYAQSVRDIKKEMRFDARVRSIDVRGEKVVVLYDVEVQHNGRPQTKQVIFIANVHNGRIKEARVEDTQ” the protease stability score was 0.271.
In the case of “DDENRRRAETWFRNIQDNNPELIRHMFDEDARLEVGDKEIQGREHFEEQMKRDVEEMRLDLKVKSVEVRGNDVTVKAEAQDDRNGHPRNFTFRIRIRYHNGRVKHVHMDRQG”, the protease stability score is reported as 0.092.
For “DDENVEIAEKIVKAEQSGDEDHLRELADPNARFHVGDKHVSGMEKFLKDFQHEFEELRFSIKVTSVTQSNGKVHMTATATRHRNGRPDSFTANRRFLFHNGKAKEVSQDNRK”, the protease stability score was -0.352.
“DDENVKKFAKELLHVIKDNDEDRFRKLAPPNVEAQYGDKTIRGRESAATQFSRVATRIDHVRLEHMTVQGEHVVMKMEVDVNGRNKQLRIVFHVRNGKITSFSMDPEAQRVNSQ” gave a protease stability score of 0.594.
“DDEQANEIISIMETGDPDKLSNMADENAKIVIGDTQIHGREDYERVATILYKQIDHHHFEHLTFTGDKVVIVWQYVVNGKQVRQRVKFDVHNGRLKHMRMEFTDPEELKIVEEILS” showed a protease stability score of 1.59.
With “DDEQDAREFVKKFVDVMRENNPRELVKMADPNVKVDVGDHRLNGREDLERKRKREADRADHIDVKVTKLHVNGDTVQAHFSFTIRHDGRNERKSETIIARKHNGRVKIKSIKNS” the protease stability score was -0.13.
With “DDEQDKKAEKLVNTGNFHDMANNADPNARIVVGDKRFHGREQFHTFMESLQTTIDHLQIKDIKRRPNHVEADVVAEVNGRRITFVILMVVHNGRIKNVEFKFRDEEDERVMEQILR” the protease stability score was 0.947.
With “DDEQDRDFVQTMREAIDRGDFKKIARMADKDVKVVIGDKNVTGRETLTHLLKDFVDKFDHIRVRHIDAHNGSVDIDMTADHNGDKRQYRIRVNVSNGQVKEFQLKQT” the protease stability score was 0.453.
For “DDEQINEFVKVMKTNDFKRLMDQADPNVSVSIGNFTVKGDKQAQKAARDLEEQADHIQIDSLTAHDGRLDVTLQMVFNGRDIRMSIKAEAHNGRLKSMKFQATSEEIEKILDEVLR”, the protease stability score was -0.142.
“DDEQLKKLAQKFADNMQSGNEEEFDRMAPPEVRVQIGDKTYKGRDKVKEMMKRFRTTADHVRIESFEAHNGQITFNVIIQVNGKSHRIRLRIQARNGQVKQFDLNPDDQRKVEK” showed a protease stability score of 0.18.
For “DDEQRKDLAHDFLHAWKKGDEKLFDNLVDENVSAQYGDKTYHGRESISTFVRNYKKRADHFRVHDMQLSNGSVRMDVEAEVNGVDVRVTFHVFFHNGRVKSLQQDFTDEDVKRRHES”, the protease stability score was 0.604.
“DDEREREFEHFLRVVEEGNPEELKKLLDPNVRIEYGDKVIHGREEYAKRVHETVKELRFSMSIHDVKVNGDTVEVDATSSWTHNGQPNKDQNVLVIRFHNGKFKEIRHDKDR” showed a protease stability score of 0.607.
For “DDERITELVTRFEKALQRGDNDEMERLMDPNARVRYGDKEYHGREDIKRALKEEKKRVDHFRLESVRWKNGHVEIFMKFTVNGRTEHRVFDIQLHNGRMKEMELTTS”, the protease stability score was 1.15.
For “DDERRARDLFKEHEDNWKNGNHEELVKQADEDARVDVGDKELHGRDDLRRENRRIVEQADHIRFDLKSLDVQGDKVTFDFVVKVDINGRTETRRVQEKFVVTNGRIRLKEATEG”, the protease stability score was -0.009.
In the case of “DDERRKKQVDTFNKAFEKGDESQIRKLFDKDAKARVGDKHYHGKEQVARMVKTFVHQVDHMQFKSVRVQGDKVRADVTVKVNGNTARFTIEIRIHNGKIQHASIDPRNMEKMKR”, the protease stability score is reported as -0.073.
With “DDERVQEQAKDFLKVVKEGNEEDLTKLFDPNASARYGDKTYHGREKVATAVAELAKKVDHFRVEHVEASGNKLHIDAYFQVNGNRRRIRFFIEIRNGKINTVIITSG” the protease stability score was 1.62.
Work on “DDESRVRKMLEDMREQLQTGNPERVADMADPNVEVTVGDKTLRGREDLVKYWRSIAENVDRVDLKLRSLNISGDQISVDFVERNNDNGQTRKHDASARFQKDNGRILATHIHVQ” yielded a protease stability score of 0.119.
With “DDETAEKLAREFIEALKEGNEEQVRRLVDENVRVEVGDTTFHGREEAAKFAKEFKQHADHVEIRDVSVHGDKVELNLVLNVNGRERDVVVIVRVENGKIKEFQYREN” the protease stability score was 1.22.
Sequence “DDETLNELVETLMKAWNQGNPDDLNKLIDKDAKIIIGETHIHGRDEFRKWADTLHRQVDHYQFDSVTAHNGRVRMHMKLRVNGVNVVVHVKVQAHNGRIKRMRMRWRNEEDKKKVEQ” has a protease stability score of 1.39.
With “DDEVAEELRDIVHNGNWEEMSRNADKNAKVTIGDKQVHGRESAVRVLRIWQKQFDHIQIDRIDKHPGRVRWNARANVNGREVDYHARIHVKNGKVTDVTMEFTDPSQKRQFNRDLN” the protease stability score was 0.205.
Work on “DDEVAKTIVKNWKTGDPDRLNEMFDPNARIRIGNQDVHGHEEVKKMLHKFFTAIDSIDIKRVSVHNGRIDIDVRAHFNGRSFRFVLHIVVEDGRVKHMEMKVTDPDSQRELEKHQK” yielded a protease stability score of 1.35.
Sequence “DDEVFRRFQEALDIVKKGDPKKFEEMADPNARVKVGDKQLHGRETIAKDIADHMKEMKIEWRVKKLTTNEDHVNVTERWQQKHDGRPEDRERRARVRARGDKLKNHEVETDG” has a protease stability score of 0.118.
“DDEVKERVTQLLTAMLTNNPDKVQELIDPNAKVHVGDKRVQGEDDIKRVVEEENRQWRMRIKSVSVHVQGEKVRLDIEFVVHVNGEPQNDRVIMELTVHNGRVTDLQLQVDPRKLQERRN” gave a protease stability score of 0.966.
With “DDEVKKEAEKMVEIIMHGDPDKVRNQFDPNAKMQIGDKELHGQEQLRDHLKRMNDHLRIDLKSVSARLDGNHIHLDVLFVKEHNGKPEEQRVEFVADIHNGKIVSASVEHVD” the protease stability score was 0.54.
For “DDEVKKFAEKFVTNLENNNPQELKSMADPNAKFEVGNKSVHGMDEYVRQVRERNEHMRFDVKRVQIRVNGNQIIINVHLHVNVNGRPVDLSYEVDINFDNGKIKYVRLDVDEDQEKRMTG”, the protease stability score was 1.1.
In the case of “DDEVLDDLVRLIKDNDWEQMANNADKDVKIQIGDKTWHGREQVEEVMRRMQETIDHLDIRSVTRHNGQVKVENRIEVNGQTIIYTVVFQAHNGRLKSMRVQATSHHAEDVMRQVIN”, the protease stability score is reported as 0.792.
With “DDEVLDQVKEFLKAVKTGNDQQIKRLADKDVHFKIGDDVIDGREKVTKEWKQQHREMSVDYKKVKLQKRPNRAIVTYDVHYRHNGRPQSLKVQVRFTFDNGKLQSMSVTNSQ” the protease stability score was -0.006.
Work on “DDEVNHNFEEMLKARESGDPDRLKELFRDDVRMQVGDKQVTGREKLAEHLVENMKHSQRTIRITDIKAHNGRLEVRLKFTEEHNGRPKTAEADVKAVVHNGKFVSMHVDQKR” yielded a protease stability score of -0.523.
Sequence “DDEVQEVAEQWMRAFNTGDPDTFKDLLDKDVRVQYGDKRLSGKKTLANELQHQKEHQRFKVQHVDIKVTGNKAEINFTLVMDVNGKPVHYTVRANLDVHNGKVKEARFTMDPNTLSKMKR” has a protease stability score of -0.24.
“DDEVRKVVHEWWKALRTGDPDLAKKLADPNAEFQIGDKRVHGMKDFARKLTEEHKESEIEINIRHIDAQGDNVNVHFEFQIDRNGRPQTNTQTVHLRVNNGKITRFEMRTQS” gave a protease stability score of 1.16.
“DDEVVKEVNNALKTNDFKSMVDLADKNARIRVGNKTYRGREEVERFQTILHQRADHVQFRKIHVEGDTAVVDMVVVVNGHKLKYTVKIRVHNGKITSLRMQFTDESDERVMSKVLG” showed a protease stability score of 0.8.
“DDHAADVMRKWFEALSSGNPDQAKKNLDPNAKVQIGDKTLHGREQVSQHVREQKEEIRFEIQSVDVRKEPGQVTVTMVYVSHFNGQPRRDTDTFFADVHGDKIKSVHIRVDEKQKQRERD” showed a protease stability score of -0.495.
Work on “DDHAERQARQVQTALKTGDPNQMERMFDENAEVVYGDKRIHGEHEASRVAKRIKEEMRVEYDVRRVTDNEDHVKFHAIIVIDENGKPRTKQLDLTMQQENGKVRLVSFRQDR” yielded a protease stability score of -0.048.
With “DDHAIRLLHEMIKAERTNDPDKLKEQMDPNAKIKYGDKTVHGRNDAVRYLEETVEHARVSIQVKSIKDQGDQAIADATITVNINGRPQQFKITIVAKFHNGRIKEVEIRVSEEQERQMES” the protease stability score was 0.785.
“DDHALERLRSLNHIEDDGNEEKVEEMLDPNATVEVGDKRYHGSHHYVDHVRQRKEKQRYSQQFKHFHREPGRIVVHATAKFQVNGKPFKYTLTQVARLSNGKFTDIKVDVPERLKEQRQQ” showed a protease stability score of -0.258.
“DDHALRLVEEFLRAMRTGDEDKLKELVDPNARVTVGDHVWHGMESAAREWKRLKDEMRIKIDLQHVDDHGNSANAKASLAFRVNGKPQQNHMKMEVIFENGRIQSIVLRFSNEVEHNIKR” gave a protease stability score of 1.28.
Sequence “DDHAMRKFHELLKAIETGDEKKITDLADKHARFEYGDTEVHGRHKYAKEATDRRREMRIEIKDMKTRVDENHVQINNNYQVQVNGEPHTYTVQVVVRMDNGRLKQVQIRVSEEIRDRNKT” has a protease stability score of -0.166.
“DDHANRVVEDVMQAWQDNDEDRLKELLDPNVKVEYGDRRVEGRDEAVREWVEQFRQSTIEYEIKSVNNSGDKVQINMDMRFESNGHPDENRVRLEASAHNGKIRELNFHTDQ” showed a protease stability score of 0.589.
For “DDHAQRHLKELLKVINTGDEEEVEHMADPNARIQVGDKVFHGMRSYVDDIRRKKEELNVEYNVRRMDADGNRVEANVDVVFNHNGKPDRRTVDMKATIRNGKIKSMHWQENP”, the protease stability score was -0.227.
Work on “DDHAVRLLNDIVRALNSGDEQKVADNADPNVRIEYGDSVITGRERLMEEIQKRRKELRFEVQVDRVREKPNHVVADVQLHFNVNGQPRNMKVEVRATWTNGKLKHMHIKMDEEQVRQLKR” yielded a protease stability score of 1.1.
“DDHAVRMAKTYQKAIQHNDPDKMVDLVDPNAKIHIGDKDIQGREELRRWVKHRIDDINIIIERVSATDKGDKAIVTVDLVENENGRPHNVRFEVTFDFKNGRAQRVTVQESR” gave a protease stability score of -0.088.
